As a reminder, the stoichiometry N is the number of molecules, sites or subunits per partner or assembly.

The text below walks through data of article PMC7797080 (Nucleic Acids Research, 2020).

This series concerns the molecule itself. As to the kind of experiment: SEC.

B1: PSEUDOURIDINE KINASE from Arabidopsis (AtPUKI), native, tag-free (enzyme, Arabidopsis thaliana)
chain: GGGSMEPVIIGALILDVHAKPSTTPISGTTVPGQVLFAPGGVARNVADCIFKLGITPFMIGTLGLDGPANVLLKEWKLSMKGILRREDISTPIVSLVYDTNGEVAAGVAGVDAVENFLTPEWIQRFEYNISSARLLMVDANLSSLALEASCKLAAESSVPVWFEPVSVTKSQRIASIAKYVTIVSPNQDELIAMANALCAKNLFHPFRSDENKLSIEDMFRALKPAILVLLKNGVKVVIVTLGSNGALLCSKGNPKKALNIDRKFLRSGEVFKRVQSVCSPNRFSELGSNRSPSLFAMHFPTIPAKVKKLTGAGDCLVGGTVASLSDGLDLIQSLAVGIASAKAAVESDDNVPPEFKLDLISGDAELVYNGAKMLMVHQSML
B1: the “stoichiometry N” value is 2.
